Results as given in paper PMC2575619, “Novel splice variants derived from the receptor tyrosine kinase superfamily are potential therapeutics for rheumatoid arthritis” (Arthritis Research & Therapy, 2008).

Assays:
[1] = target: angiopoietin-1 (UniProt Q15389); test: ELISA; Ang-1 coated on 96-well plates at 4 μg/ml in PBS; purified Tie1-751(6His) applied, 1.5 hours at room temperature, three rinses in PBS/0.05% Tween-20; detected with biotin-labeled extracellular domain-specific antibody
[2] = target: T1, recombinant human VEGFR3/Fc chimera (human, UniProt P35916 25-775); test: co-IP; competition in the solution binding of VEGF-D to VEGFR3-765-Myc: fivefold molar excess of recombinant human VEGFR3/Fc or VEGFR1/Fc chimera; immunoprecipitation with anti-VEGF-D, blot with anti-Myc; settings: both partners purified
T1 construct: Human VEGF receptor type 3, the soluble part fused to Fc; Commercial chimera, probably the extracellular domain on human IgG1 Fc; also called soluble VEGFR3/Fc chimera; source: bought: R&D Systems
T1 sequence (looked up): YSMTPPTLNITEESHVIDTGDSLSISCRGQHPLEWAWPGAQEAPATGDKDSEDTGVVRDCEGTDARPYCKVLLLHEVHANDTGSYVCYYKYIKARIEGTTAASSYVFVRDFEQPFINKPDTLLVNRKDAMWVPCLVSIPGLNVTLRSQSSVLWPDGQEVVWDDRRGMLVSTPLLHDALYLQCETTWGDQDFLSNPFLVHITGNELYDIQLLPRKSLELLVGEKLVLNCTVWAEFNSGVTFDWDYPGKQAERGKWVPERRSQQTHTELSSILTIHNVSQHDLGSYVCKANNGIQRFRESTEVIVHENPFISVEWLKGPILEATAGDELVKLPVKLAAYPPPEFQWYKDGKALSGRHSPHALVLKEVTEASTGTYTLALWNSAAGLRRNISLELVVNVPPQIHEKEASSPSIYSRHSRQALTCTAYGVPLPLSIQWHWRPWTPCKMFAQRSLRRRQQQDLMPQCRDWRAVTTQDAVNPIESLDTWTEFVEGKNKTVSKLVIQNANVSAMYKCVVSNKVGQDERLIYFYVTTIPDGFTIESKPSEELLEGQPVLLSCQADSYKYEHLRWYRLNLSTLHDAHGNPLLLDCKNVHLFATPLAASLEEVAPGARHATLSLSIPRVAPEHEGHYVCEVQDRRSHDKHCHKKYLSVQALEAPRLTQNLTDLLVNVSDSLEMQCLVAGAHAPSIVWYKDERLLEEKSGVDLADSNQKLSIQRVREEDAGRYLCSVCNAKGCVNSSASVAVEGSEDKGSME

Sequence of angiopoietin-1 (Q15389 16-498): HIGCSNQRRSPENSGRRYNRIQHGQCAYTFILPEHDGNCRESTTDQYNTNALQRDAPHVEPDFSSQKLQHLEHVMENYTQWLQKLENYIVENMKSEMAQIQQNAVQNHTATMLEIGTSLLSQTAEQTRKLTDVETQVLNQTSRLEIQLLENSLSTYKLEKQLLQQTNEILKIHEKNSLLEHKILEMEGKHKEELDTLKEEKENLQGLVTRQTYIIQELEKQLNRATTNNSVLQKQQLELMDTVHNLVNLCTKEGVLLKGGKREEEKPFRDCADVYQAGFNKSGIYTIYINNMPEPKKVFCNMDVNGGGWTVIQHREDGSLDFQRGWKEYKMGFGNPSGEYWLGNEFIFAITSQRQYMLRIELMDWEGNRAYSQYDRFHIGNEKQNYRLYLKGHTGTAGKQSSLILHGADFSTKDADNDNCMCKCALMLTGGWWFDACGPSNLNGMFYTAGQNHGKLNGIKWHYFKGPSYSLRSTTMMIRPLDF

## Tie1-751(6His) (from UniProt P35590-1 22-740) (receptor)
[1]
  Kd: 89 nM

B1: VEGF-D (ligand, human, UniProt O43915 89-205, looked up)
chain: FAATFYDIETLKVIDEEWQRTQCSPRETCVEVASELGKSTNTFFKPPCVNVFRCGGCCNEESLICMNTSTSYISKQLFEISVPLTSVPELVPVKVANHTGCKCLPTAPRHPYSIIRR
notes: Human VEGF-D, bought recombinant protein; source: bought: R&D Systems
[2]
  binding result: binds
